From patent US5919694A, “Mutant phosphoenolpyruvate carboxylase, its gene, and production method of amino acid” (Ajinomoto Co., Inc., priority 1993, dated 1999)

B1: wild type enzyme: wild type phosphoenolpyruvate carboxylase of Escherichia coli, expressed from pS2 or pT2 (protein, UniProt P00864 1-883, looked up)
Phosphoenolpyruvate …: MNEQYSALRSNVSMLGKVLGETIKDALGEHILERVETIRKLSKSSRAGNDANRQELLTTLQNLSNDELLPVARAFSQFLNLANTAEQYHSISPKGEAASNPEVIARTLRKLKNQPELSEDTIKKAVESLSLELVLTAHPTEITRRTLIHKMVEVNACLKQLDNKDIADYEHNQLMRRLRQLIAQSWHTDEIRKLRPSPVDEAKWGFAVVENSLWQGVPNYLRELNEQLEENLGYKLPVEFVPVRFTSWMGGDRDGNPNVTADITRHVLLLSRWKATDLFLKDIQVLVSELSMVEATPELLALVGEEGAAEPYRYLMKNLRSRLMATQAWLEARLKGEELPKPEGLLTQNEELWEPLYACYQSLQACGMGIIANGDLLDTLRRVKCFGVPLVRIDIRQESTRHTEALGELTRYLGIGDYESWSEADKQAFLIRELNSKRPLLPRNWQPSAETREVLDTCQVIAEAPQGSIAAYVISMAKTPSDVLAVHLLLKEAGIGFAMPVAPLFETLDDLNNANDVMTQLLNIDWYRGLIQGKQMVMIGYSDSAKDAGVMAASWAQYQAQDALIKTCEKAGIELTLFHGRGGSIGRGGAPAHAALLSQPPGSLKGGLRVTEQGEMIRFKYGLPEITVSSLSLYTGAILEANLLPPPEPKESWRRIMDELSVISCDVYRGYVRENKDFVPYFRSATPEQELGKLPLGSRPAKRRPTGGVESLRAIPWIFAWTQNRLMLPAWLGAGTALQKVVEDGKQSELEAMCRDWPFFSTRLGMLEMVFAKADLWLAEYYDQRLVDKALWPLGKELRNLQEEDIKVVLAIANDSHLMADLPWIAESIQLRNIYTDPLNVLQAELLHRSRQAEKEGQEPDPRVEQALMVTIAGIAAGMRNTG

Experiments:
Escherichia coli HB101 = test: Growth inhibition of Escherichia coli HB101 by aspartic acid analog compounds and recovery by additives; type: cell-based; conditions: E. coli HB101 in M9 medium, absorbance at 660 nm; FIGS. 1-3
Method: It is proposed, as a general structure of an inhibitor of phosphoenolpyruvate carboxylase, that a C4 dicarboxylic acid structure is essentially provided. From such a viewpoint, various compounds were subjected to screening by the present inventors. Escherichia coli HB101 was cultivated in an LB medium, and transferred to M9 media (containing 20 μg/ml of thiamine and 3 μg/ml of each of Leu and Pro) containing any one of DL-2-amino-4-phosphonobutyric acid, bromosuccinic acid, meso-2,3-dibromosuccinic acid, 2,2-difluorosuccinic acid, 3-bromopyruvic acid, α-ketobutyric acid, α-ketoadipinic acid DL-threo-β-hydroxyaspartic acids L-aspartic acid β-metyl ester α-metyl-DL-aspartic acid, 2,3-diaminosuccinic acid or aspartic acid-β-hydrazide, and absorbance of the medium was measured at 660 nm with the passage of time, thereby growth was monitored.
Further, when these compounds were present at their growth inhibitory concentrations, it was investigated whether or not the inhibition was recovered by addition of nucleic acids (each of uridine, adenosine: 10 mg/dl), glutamic acid or amino acids of the aspartic acid family (Asp: 0.025%, each of Met, Thr, Lys: 0.1%).
Further, growth recovery of Escherichia coli, in the case of addition of the aforementioned inhibition recovering substances alone or as a mixture of 2 species or 3 species, is shown in FIGS. 4-6. […]

[1] = test system: phosphoenolpyruvate carboxylase; test: Sensitivity of phosphoenolpyruvate carboxylase activity to aspartic acid; type: biochemical, Escherichia coli
From the text: When the microorganism transformed with the DNA sequence of the present invention as described above is cultivated, and this DNA sequence is expressed, then a mutant enzyme is obtained. It becomes apparent, by measuring the activity by adding aspartic acid to an enzyme reaction system, whether or not the mutant enzyme thus obtained has desensitized feedback inhibition by aspartic acid. It is possible for the measurement of the enzyme activity to use a spectrometric method (Yoshinage, T., Izui, K. and Katsuki, H., J. Biochem., 68, 747-750 (1970)) and the like.
(§1) Sensitivity to aspartic acid was investigated in accordance with a known method (Yoshinaga, T., Izui, K. and Katsuki, H., J. Biochem., 68, 747-750 (1970)). Namely, as a result of measurement of the enzyme activity produced by each of the transformants or Escherichia coli harboring pS2 in the presence of acetyl-coenzyme A known to affect the activity in an activity measurement system at a concentration of 0.1 mM or 1 mM, sensitivity to aspartic acid was measured as shown in FIGS. 9 and 10.
as §1, with “activity” for “activity produced by each of the transformants or Escherichia coli harboring pS2”, “of 1” for “of 0.1”, “or 2” for “or 1”, “in FIG. 12.” for “in FIGS. 9 and 10.”
as §1, with “activity” for “activity produced by each of the transformants or Escherichia coli harboring pS2”, “of 1” for “of 0.1”, “or 2” for “or 1”, “in FIG. 13.” for “in FIGS. 9 and 10.”

| Molecule | growth inhibition of Escherichia coli (Escherichia coli HB101) | enzyme activity at high aspartic acid concentration (sensitivity to aspartic acid) ([1]; Example 2, acetyl-coenzyme A 0.1 mM or 1 mM, FIGS. 9 and 10) | enzyme activity at high aspartic acid concentration (sensitivity to aspartic acid) ([1]; Example 6 <3>, pT2R438C (438th Arg to Cys), acetyl-coenzyme A 1 mM or 2 mM, FIG. 12) | enzyme activity at high aspartic acid concentration (sensitivity to aspartic acid) ([1]; Example 6 <5>, pT2K620S, acetyl-coenzyme A 1 mM or 2 mM, FIG. 13) |
| --- | --- | --- | --- | --- |
| N[C@H](C(=O)O)[C@H](O)C(=O)O (relative stereo) [DL-threo-β-hydroxyaspartate] | growth inhibition | – | – | – |
| NNC(=O)CC(N)C(=O)O (stereo not drawn) [aspartate-β-hydrazide] | growth inhibition | – | – | – |
| B1 | – | loses its activity | substantially loses its activity | substantially loses its activity |
